Consider two molecules from patent publication US7186459B2, “Liposome coated with polyhydroxyalkanoate and production method thereof” (priority 2001, dated 2007).

This data set deals with PHA synthesizing enzyme. Nature of the data set: Activity of purified PHA synthesizing enzyme (released CoA coloured with 5,5'-dithiobis-(2-nitrobenzoic acid), absorbance at 412 nm). Format: biochemical, Pseudomonas cichorii YN2. As to conditions: for Activity: 1 U = amount of enzyme releasing 1 μmol CoA per minute, substrate 3-hydroxyoctanoyl CoA, 30° C.; for Specific Activity: protein by Micro BCA. An excerpt: A various kinds of reported methods may be used for measuring activity of the PHA synthesizing enzyme, and for example, the activity may be measured by the following method in which as a measurement principle, CoA released in the process through which 3-hydroxyacyl CoA is polymerized under the catalytic action of the PHA synthesizing enzyme to form PHA is colored with 5,5′-dithiobis-(2-nitrobenzoic acid) to carry out measurements. Reagent 1: bovine serum albumin (manufactured by Sigma Co., Ltd.) is dissolved in a 0.1 M Tris hydrochloric buffer (pH 8.0) in the concentration of 3.0 mg/ml, Reagent 2: 3-hydroxyoctanoyl CoA is dissolved in a 0.1 M Tris hydrochloric buffer (pH 8.0) in the concentration of 3.0 mM, Reagent 3: trichloroacetic acid is dissolved in a 0.1 M Tris hydrochloric buffer (pH 8.0) in the concentration of 10 mg/ml, and Reagent 4: 5,5′-dithiobis-(2-nitrobenzoic acid) is dissolved in a 0.1 M Tris hydrochloric buffer (pH 8.0) in the concentration of 2.0 mM. First reaction (PHA synthesis reaction): 100 μl of Reagent 1 is added in 100 μl of sample (enzyme) solution and mixed together, and is pre-incubated at 30° C. for a minute. 100 μl of Reagent 2 is added thereto and mixed together, and is incubated at 30° C. for 1 to 30 minutes, followed by adding thereto Reagent 3 to stop the reaction. Second reaction (reaction of coloring free CoA): the first reaction solution of which reaction has been stopped is subjected to centrifugation (15,000×g, 10 minutes), and 500 μl of Reagent 4 is added in 500 μl of supernatant liquid of this solution, and is incubated at 30° C. for 10 minutes, followed by measuring an absorbance at 412 nm. Calculation of enzyme activity: the amount of enzyme for releasing 1 μmol of CoA per minute is defined as one unit (U).
The activity of each purified enzyme was measured by the aforesaid method. Also, the concentrations of proteins in the sample were measured by the Micro BCA protein quantification reagent kit (Pierce Chemical Co., Ltd.).

B1: YN2-C1: Purified PHA synthase derived from Pseudomonas cichorii YN2, from plasmid pYN2-C1 (SEQ ID NO: 2), 60.8 kDa (protein)
chain: MSNKSNDELKYQASENTLGLNPVVGLRGKDLLASARMVLRQAIKQPVHSVKHVAHFGLELKNVLLGKSGLQPTSDDRRFADPAWSQNPLYKRYLQTYLAWRKELHDWIDESNLAPKDVARGHFVINLMTEAMAPTNTAANPAAVKRFFETGGKSLLDGLSHLAKDLVHNGGMPSQVNMGAFEVGKSLGVTEGAVVFRNDVLELIQYKPTTEQVYERPLLVVPPQINKFYVFDLSPDKSLARFCLRNNVQTFIVSWRNPTKEQREWGLSTYIEALKEAVDVVTAITGSKDVNMLGACSGGITCTALLGHYAAIGENKVNALTLLVSVLDTTLDSDVALFVNEQTLEAAKRHSYQAGVLEGRDMAKVFAWMRPNDLIWNYWVNNYLLGNEPPVFDILFWNNDTTRLPAAFHGDLIELFKNNPLIRPNALEVCGTPIDLKQVTADIFSLAGTNDHITPWKSCYKSAQLFGGNVEFVLSSSGHIQSILNPPGNPKSRYMTSTEVAENADEWQANATKHTDSWWLHWQAWQAQRSGELKKSPTKLGSKAYPAGEAAPGTYVHER
modifications: Pseudomonas cichorii YN2 ; FERM BP-7375
On to B1, for which the Activity turned out to be 2.1 U/mL and the “Specific Activity” value amounted to 4.1 U/mg Protein.

B2: YN2-C2: Purified PHA synthase derived from Pseudomonas cichorii YN2, from plasmid pYN2-C2 (SEQ ID NO: 4), 61.5 kDa (protein)
chain: MRDKPARESLPTPAKFINAQSAITGLRGRDLVSTLRSVAAHGLRHPVHTARHALKLGGQLGRVLLGDTLHPTNPQDRRFDDPAWSLNPFYRRSLQAYLSWQKQVKSWIDESNMSPDDRARAHFAFALLNDAVSPSNSLLNPLAIKEIFNSGGNSLVRGIGHLVDDLLHNDGLPRQVTRHAFEVGKTVATTTGAVVFRNELLELIQYKPMSEKQYSKPLLVVPPQINKYYIFDLSPHNSFVQFALKNGLQTFVISWRNPDVRHREWGLSTYVEAVEEAMNVCRAITGAREVNLMGACAGGLTIAALQGHLQAKRQLRRVSSATYLVSLLDSQLDSPATLFADEQTLEAAKRRSYQKGVLEGRDMAKVFAWMRPNDLIWSYFVNNYLMGKEPPAFDILYWNNDNTRLPAALHGDLLDFFKHNPLSHPGGLEVCGTPIDLQKVTVDSFSVAGINDHITPWDAVYRSTLLLGGERRFVLANSGHVQSILNPPNNPKANYLEGAKLSSDPRAWYYDAKPVDGSWWTQWLGWIQERSGAQKETHMALGNQNYPPMEAAPGTYVRVR
modifications: Pseudomonas cichorii YN2 ; FERM BP-7375
As for B2, the Activity came to 1.5 U/mL and the “Specific Activity” value came out at 3.6 U/mg Protein.
